Reference: patent US8840891 (RSR, dated 2014)
Like-named read-outs stand apart in the source and are kept apart here.

Columns and labels:
[1] = molecular target: human TSHR, wild type, expressed on CHO cells (human) (UniProt P16473); test: cell-based or functional assay
[2] = molecular target: TSHR with His105 mutated to Alanine expressed on CHO cells (human) (UniProt P16473); test: cell-based or functional assay
[3] = molecular target: wild type human TSHR (thyrotropin receptor) expressed on CHO cells (human) (UniProt P16473); test: cell-based or functional assay
[4] = molecular target: TSHR with Asp203 mutated to Alanine expressed on CHO cells (human) (UniProt P16473); test: cell-based or functional assay
[5] = molecular target: wild type human TSHR (thyrotropin receptor) expressed on CHO cells (human) (UniProt P16473); test: cell-based or functional assay; remark: listed apart in the source
[6] = molecular target: TSHR with Lys209 mutated to Alanine expressed on CHO cells (human) (UniProt P16473); test: cell-based or functional assay
[7] = molecular target: TSHR with Thr257 mutated to Alanine expressed on CHO cells (human) (UniProt P16473); test: cell-based or functional assay
[8] = molecular target: wild type human TSHR (thyrotropin receptor) expressed on CHO cells (human) (UniProt P16473); test: cell-based or functional assay; remark: listed apart in the source
[9] = molecular target: TSHR coated onto tubes (TSHR coated tubes) (human) (UniProt P16473); test: TSHR coated tubes, in the presence of HBD pool (Table 5)

- cyclic AMP; Exp 1; 5C9 0.01 µg/mL + M22 3 ng/mL [1]: 48.1 pmol/mL
- cyclic AMP; Exp 1; 5C9 0.1 µg/mL + M22 3 ng/mL [1]: 6 pmol/mL
- cyclic AMP; Exp 1; 5C9 1 µg/mL + M22 3 ng/mL [1]: 0.93 pmol/mL
- cyclic AMP; Exp 1; 5C9 10 µg/mL + M22 3 ng/mL [1]: 0.36 pmol/mL
- cyclic AMP; Exp 1; 5C9 100 µg/mL + M22 3 ng/mL [1]: 0.35 pmol/mL
- cyclic AMP; Exp 1; 5C9 100 µg/mL only [1]: 0.35 pmol/mL
- cyclic AMP; Exp 2; 5C9 0.001 µg/mL + M22 3 ng/mL [1]: 63.3 pmol/mL
- cyclic AMP; Exp 2; 5C9 0.01 µg/mL + M22 3 ng/mL [1]: 57.3 pmol/mL
- cyclic AMP; Exp 2; 5C9 0.1 µg/mL + M22 3 ng/mL [1]: 4.17 pmol/mL
- cyclic AMP; Exp 2; 5C9 10 µg/mL + M22 3 ng/mL [1]: 0.14 pmol/mL
- cyclic AMP; Exp 2; 5C9 100 µg/mL only [1]: 0.69 pmol/mL
- cyclic AMP; Exp 2; 5C9 + M22 3 ng/mL [1]: 2.54 pmol/mL
- cyclic AMP; Exp 3; 5C9 0.001 µg/mL + M22 0.3 ng/mL [1]: 13.3 pmol/mL
- cyclic AMP; Exp 3; 5C9 0.01 µg/mL + M22 0.3 ng/mL [1]: 13.1 pmol/mL
- cyclic AMP; Exp 3; 5C9 0.1 µg/mL + M22 0.3 ng/mL [1]: 1.43 pmol/mL
- cyclic AMP; Exp 3; 5C9 1 µg/mL + M22 0.3 ng/mL [1]: 0.02 pmol/mL
- cyclic AMP; Exp 3; 5C9 10 µg/mL + M22 0.3 ng/mL [1]: 0.2 pmol/mL
- cyclic AMP; Exp 3; 5C9 100 µg/mL + M22 0.3 ng/mL [1]: 0.05 pmol/mL
- cyclic AMP; Exp 3; 5C9 100 µg/mL only [1]: 0.58 pmol/mL
- cyclic AMP; Exp 4; 5C9 0.001 µg/mL + M22 0.3 ng/mL [1]: 33.1 pmol/mL
- cyclic AMP; Exp 4; 5C9 0.01 µg/mL + M22 0.3 ng/mL [1]: 31.5 pmol/mL
- cyclic AMP; Exp 4; 5C9 0.1 µg/mL + M22 0.3 ng/mL [1]: 6 pmol/mL
- cyclic AMP; Exp 4; 5C9 1 µg/mL + M22 0.3 ng/mL [1]: 0.21 pmol/mL
- cyclic AMP; Exp 4; 5C9 10 µg/mL + M22 0.3 ng/mL [1]: 0.4 pmol/mL
- cyclic AMP; Exp 4; 5C9 100 µg/mL + M22 0.3 ng/mL [1]: 0.22 pmol/mL
- cyclic AMP; Exp 4; 5C9 100 µg/mL only [1]: 0.12 pmol/mL
- Cyclic AMP produced; 5C9 0.01 µg/mL + TSH (fmol/cell well) [2]: 24200
- Cyclic AMP produced; 5C9 0.1 µg/mL + TSH (fmol/cell well) [2]: 2870
- Cyclic AMP produced; 5C9 1.0 µg/mL + TSH (fmol/cell well) [2]: 561
- Cyclic AMP produced; 5C9 10 µg/mL + TSH (fmol/cell well) [2]: 434
- Cyclic AMP produced; 5C9 100 µg/mL + TSH (fmol/cell well) [2]: 134
- Cyclic AMP produced; 5C9 100 µg/mL only (fmol/cell well) [2]: 520
- Mutated/wild type (%); 5C9 0.01 µg/mL + TSH [2]: 145%
- Mutated/wild type (%); 5C9 0.1 µg/mL + TSH [2]: 82%
- Mutated/wild type (%); 5C9 1.0 µg/mL + TSH [2]: 124%
- Mutated/wild type (%); 5C9 10 µg/mL + TSH [2]: 150%
- Mutated/wild type (%); 5C9 100 µg/mL + TSH [2]: 60%
- Mutated/wild type (%); 5C9 100 µg/mL only [2]: 222%
- Cyclic AMP produced; 5C9 0.01 µg/mL + TSH (fmol/cell well) [3]: 16700
- Cyclic AMP produced; 5C9 0.1 µg/mL + TSH (fmol/cell well) [3]: 3510
- Cyclic AMP produced; 5C9 1.0 µg/mL + TSH (fmol/cell well) [3]: 454
- Cyclic AMP produced; 5C9 10 µg/mL + TSH (fmol/cell well) [3]: 289
- Cyclic AMP produced; 5C9 100 µg/mL + TSH (fmol/cell well) [3]: 223
- Cyclic AMP produced; 5C9 100 µg/mL only (fmol/cell well) [3]: 234
- Cyclic AMP produced; 5C9 0.01 µg/mL + TSH (fmol/cell well) [4]: 14700
- Cyclic AMP produced; 5C9 0.1 µg/mL + TSH (fmol/cell well) [4]: 13100
- Cyclic AMP produced; 5C9 1.0 µg/mL + TSH (fmol/cell well) [4]: 14700
- Cyclic AMP produced; 5C9 10 µg/mL + TSH (fmol/cell well) [4]: 12600
- Cyclic AMP produced; 5C9 100 µg/mL + TSH (fmol/cell well) [4]: 12700
- Cyclic AMP produced; 5C9 100 µg/mL only (fmol/cell well) [4]: 1370
- Mutated/wild type (%); 5C9 0.01 µg/mL + TSH [4]: 95%
- Mutated/wild type (%); 5C9 0.1 µg/mL + TSH [4]: 296%
- Mutated/wild type (%); 5C9 1.0 µg/mL + TSH [4]: 1090%
- Mutated/wild type (%); 5C9 10 µg/mL + TSH [4]: 1570%
- Mutated/wild type (%); 5C9 100 µg/mL + TSH [4]: 3450%
- Mutated/wild type (%); 5C9 100 µg/mL only [4]: 415%
- Cyclic AMP produced; 5C9 0.01 µg/mL + TSH (fmol/cell well) [5]: 15500
- Cyclic AMP produced; 5C9 0.1 µg/mL + TSH (fmol/cell well) [5]: 4440
- Cyclic AMP produced; 5C9 1.0 µg/mL + TSH (fmol/cell well) [5]: 1350
- Cyclic AMP produced; 5C9 10 µg/mL + TSH (fmol/cell well) [5]: 807
- Cyclic AMP produced; 5C9 100 µg/mL + TSH (fmol/cell well) [5]: 367
- Cyclic AMP produced; 5C9 100 µg/mL only (fmol/cell well) [5]: 330
- Cyclic AMP produced; 5C9 0.01 µg/mL + TSH (fmol/cell well) [6]: 5960
- Cyclic AMP produced; 5C9 0.1 µg/mL + TSH (fmol/cell well) [6]: 278
- Cyclic AMP produced; 5C9 1.0 µg/mL + TSH (fmol/cell well) [6]: 360
- Cyclic AMP produced; 5C9 10 µg/mL + TSH (fmol/cell well) [6]: 482
- Cyclic AMP produced; 5C9 100 µg/mL + TSH (fmol/cell well) [6]: 354
- Cyclic AMP produced; 5C9 100 µg/mL only (fmol/cell well) [6]: 280
- Mutated/wild type (%); 5C9 0.01 µg/mL + TSH [6]: 39%
- Mutated/wild type (%); 5C9 0.1 µg/mL + TSH [6]: 6%
- Mutated/wild type (%); 5C9 1.0 µg/mL + TSH [6]: 30%
- Mutated/wild type (%); 5C9 10 µg/mL + TSH [6]: 49%
- Mutated/wild type (%); 5C9 100 µg/mL + TSH [6]: 59%
- Mutated/wild type (%); 5C9 100 µg/mL only [6]: 103%
- Cyclic AMP produced; 5C9 0.01 µg/mL + TSH (fmol/cell well) [7]: 21100
- Cyclic AMP produced; 5C9 0.1 µg/mL + TSH (fmol/cell well) [7]: 7940
- Cyclic AMP produced; 5C9 1.0 µg/mL + TSH (fmol/cell well) [7]: 1590
- Cyclic AMP produced; 5C9 10 µg/mL + TSH (fmol/cell well) [7]: 972
- Cyclic AMP produced; 5C9 100 µg/mL + TSH (fmol/cell well) [7]: 611
- Cyclic AMP produced; 5C9 100 µg/mL only (fmol/cell well) [7]: 637
- Mutated/wild type (%); 5C9 0.01 µg/mL + TSH [7]: 113%
- Mutated/wild type (%); 5C9 0.1 µg/mL + TSH [7]: 129%
- Mutated/wild type (%); 5C9 1.0 µg/mL + TSH [7]: 114%
- Mutated/wild type (%); 5C9 10 µg/mL + TSH [7]: 152%
- Mutated/wild type (%); 5C9 100 µg/mL + TSH [7]: 103%
- Mutated/wild type (%); 5C9 100 µg/mL only [7]: 111%
- Cyclic AMP produced; 5C9 0.01 µg/mL + TSH (fmol/cell well) [8]: 18700
- Cyclic AMP produced; 5C9 0.1 µg/mL + TSH (fmol/cell well) [8]: 6140
- Cyclic AMP produced; 5C9 1.0 µg/mL + TSH (fmol/cell well) [8]: 1400
- Cyclic AMP produced; 5C9 10 µg/mL + TSH (fmol/cell well) [8]: 638
- Cyclic AMP produced; 5C9 100 µg/mL + TSH (fmol/cell well) [8]: 591
- Cyclic AMP produced; 5C9 100 µg/mL only (fmol/cell well) [8]: 566
- % of labelled protein bound [9]: 13%
B1: 5C9 IgG (human monoclonal autoantibody to the TSHR) (antibody, from another filing, V domains shown)
VH: EVQLVESGGGLIQPGGSLRLSCAASGFTVSSNYMSWVRQAPGKGLEWVSVTYSGGSTSYADSVKGRFTISRDNSKNTLYLQMNSLRAEDTAVYYCARGGRYCSSISCYARSGCDYWGQGTLVTVSS
VL: AIQMTQSPSSLSASVGDRVTITCRASQSISNYLNWYQQKPGKAPKLLIYAASSLQSGVPSRFSGSGSGTDFTLTISSLQPEDFATYYCQQSYSSPSTTFGQGTKLEIK
